Publication PMC12062419 (2025)

Target: T1, human migfilin (residues 1-85) Ser12His (human, UniProt Q8WUP2 1-85, Ser12His)
T1 sequence: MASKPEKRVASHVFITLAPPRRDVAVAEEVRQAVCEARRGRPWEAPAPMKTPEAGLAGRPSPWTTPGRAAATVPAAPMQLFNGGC
Assay: NMR

Kd: 4.9 µM
B1: GST-tagged human filamin A domain 21 (FLNa21) labelled with 4-trifluoromethyl-L-phenylalanine at position 2274 (domain or fragment)
chain: GGAHKVRAGGPGLERAEAGVPAEFSIWTREAGAGGLAIFVEGPSKAEISFEDRKDGSCGVAYVVQEPGDYEVSVKFNEEHIPDSPFVVPVASP
modifications: 4-trifluoromethyl-L-phenylalanine (tfmF) at position 2274
